# Measured values from patent publication US20250340881A1, “PHARMACEUTICAL COMPOSITION FOR TREATING CANCER COMPRISING FOXM1 MUTANT OR FOXM1 SHRNA” (Industry-University Cooperation Foundation Hanyang …, priority 2022, published 2025).
# Legend:
# A549 lung cancer cells [1] = assay: Matrigel invasion assay of A549 cells expressing FoxM1 WT or point mutants; format: cell-based; settings: for invasion of cancer cells (in words): Matrigel invasion assay, A549
# Protocol: To observe the effects of the WT, phosphorylation, and non-phosphorylated point mutants of FoxM1 proteins on the invasion of cancer cells, an invasion assay using Matrigel was performed in lung cancer cells A549 expressing these mutants.
# Specifically, after completely dissolving Matrigel at 4° C. for 16-20 hours, Matrigel was diluted with cold serum-free RPMI 1640 (4° C.) to 1 mg/ml. 100 μl of Matrigel mixture (1 mg/ml) was added to an […] 24-well insert and solidified in a 37° C. incubator for 12-20 hours. 1×10^5 cells/well of lung cancer cells A549 expressing each WT, phosphorylation, and non-phosphorylated point mutant FoxM1 proteins were diluted in serum-free RPMI 1640 (36° C.) and dispensed onto the insert. 0.5 ml/well of warm RPMI 1640 (10% FBS) at 36° C. was dispensed to the insert. For the positive control group, 0.5 ml of RPMI 1640 (10% FBS) containing 5 ng/ml TGF-β at 36° C. was used. The medium was changed once every 3 days, and the degree of invasion was observed. On the 7th day, when sufficient cancer cell invasion was observed, the medium was removed, washed with 1×PBS, and the cells inside the insert were scraped with a cotton swab and washed with 1×PBS to remove any remaining cells and Matrigel inside the insert. 500 μl of 4% paraformaldehyde was dispensed into the 24 wells with the outer surface of the insert, incubated at room temperature for 5 minutes, washed three times with 1×PBS, and stained with 0.05% crystal violet solution for 5 minutes. After 5 minutes, it was washed five times with 1×PBS and dissolved in DMSO. The degree of staining was determined by measuring the absorbance at 590 nm.
# Specifically, Matrigel was completely solved at 4° C. for 16-20 hours and diluted to 1 mg/ml in cold serum free RPMI 1640 (4° C.). 100 μl of Matrigel mixture (1 mg/ml) was added into […] 24-well insert and solidified in a 37° C. incubator for 12-20 hours. A549 lung cancer cells expressing Mock or the experimental group FoxM1 WT protein were dispensed on the solidified Matrigel insert with 1×10^5 cells/well diluted in serum free RPMI 1640 (36° C.), and 0.5 ml/well of 36° C. of warm RPMI 1640 (10% FBS) were dispensed. For the positive control group, 0.5 ml of 36° C. RPMI 1640 (10% FBS) containing 5 ng/ml of TGF-β were dispensed. Then, once in 3 days, the medium was changed, and the level of invasion was observed. […] 500 ul of 4% paraformaldehyde was dispensed into 24 wells where the outer surface of the insert was placed, incubated for 5 minutes at room temperature, washed three times with 1×PBS, and stained with 0.05% crystal-violet solution for 5 minutes. After 5 minutes, they were washed 5 times with 1×PBS, and the degree of staining was dissolved in DMSO, and the wavelength was measured at 590 nm.
# A549 cancer cells = assay: Tail vein injection metastatic cancer animal model with A549 cells expressing FoxM1 mutants; format: in vivo, mice; settings: for cancer metastasis to lung and tumorigenesis (tumorigenicity): A549 cells expressing the mutant injected into tail vein of mice; for degree of cancer cell proliferation by H&E and Ki67 staining: lung tissue of injected mice
# Protocol: To observe the tumorigenic potential of cancer cells in animal models, the present inventors aimed to evaluate the tumorigenicity-promoting and -suppressing effects of cancer cells by using cancer cells expressing phosphorylation and non-phosphorylated point mutants of FoxM1 S25 residue.
# Specifically, A549 cancer cells (2×10^6 cells) stably expressing FoxM1 protein containing point mutations were diluted in PBS and injected into the tail vein of mice. The mice were raised for 8 weeks, and then laparotomy was performed to observe cancer cell metastasis and tumorigenesis in organs.
# A549 lung cancer cells [2] = assay: EMT marker expression (immunoblot, real-time PCR) in A549 cells expressing FoxM1 WT or mutants; format: cell-based; settings: A549 cells expressing the mutant
# Source text: To establish a stabilized cell line expressing WT, phosphorylation, and non-phosphorylated point mutants of FoxM1 in lung cancer cells, A549 cells were first infected with pLVX-Tet3G expressing lentivirus, and the infected cells were selected by treating with G418 for 5 days. The selected A549Tet3G cells were infected with lentiviruses expressing WT and phosphorylated point mutants (S25E, S361E, S715E) and non-phosphorylated point mutants (S25A, S361A, S715A) of FoxM1, and then treated with puromycin for 48 hours to establish a stabilized cell line. The established cells were treated with 2 μg/ml of doxycycline to induce expression of WT, phosphorylation, and non-phosphorylated point mutants of FoxM1, and the mRNA and protein expression levels of each FoxM1 point mutant were determined to confirm whether they were well expressed. As shown in FIG. 4A and FIG. 4B, it was confirmed that the WT and each point mutant form of FoxM1 were well expressed through mRNA and protein expression levels. It was observed that the expression levels of N-cadherin and vimentin were higher, and the expression levels of E-cadherin were lower in lung cancer cells expressing the phosphorylated form of FoxM1, specifically, phosphorylated at the phosphorylation site S25, compared to the cells expressing the non-phosphorylated form of FoxM1. In addition, when it was examined whether the expression of these phosphorylation and non-phosphorylated point mutants of FoxM1 affected cell proliferation, it was observed that it had no significant effect on cell proliferation (FIG. 4C).
# To establish a stabilized cell line expressing FoxM1 WT in A549 lung cancer cells, first, pLVX-Tet3G expressing lentivirus was infected into cells, and the infected cells were selected by treating 500 μg/ml of G418 for 5 days. The selected A549^Tet3G cells were infected with lentiviruses expressing FoxM1 WT or Mock, and the stabilized cell lines were established by treating with 2 μg/ml of puromycin for 48 hours. After inducing the expression of FoxM1 WT by treating the established cells with 2 μg/ml of doxycycline, the protein expression was observed by immunoblot.
# A549 cells = assay: MTT viability of A549 cells co-cultured with THP-1 cells and Jurkat cells; format: cell-based; settings: ratios 1:0:0, 1:6:0, 1:0:6, 1:6:6, 48 h
# Protocol: To investigate the polarization into tumor-infiltrating T lymphocytes (TILs) by A549^S25E cells, the expression levels of CD25 and CD29, which were expressed in TILs, were analyzed by qRT-PCR after co-culturing Jurkat cells (1.2×10^5 cells) and A549^S25E cells (4×10^4 cells) for 48 h. As a result, it was observed that there was a significant increase of 3 folds or more, in the expression of CD25 and CD29 in Jurkat cells co-cultured with A549^S25E cells. […] Additionally, to investigate the inhibitory effect of A549^S25A cells on tumor immune evasion by TAMs or TILs in the tumor microenvironment, the viability change was examined by an MTT assay analysis after co-culturing A549 cells expressing the FoxM1 phosphorylation or non-phosphorylated point mutant, THP-1 cells, and Jurkat cells at a ratio of 1:0:0, 1:6:0, 1:0:6, and 1:6:6 for 48 h. […] That is, there was the inhibitory effect of the cells expressing non-phosphorylated point mutant on the tumor immune evasion by TAMs or TILs in the tumor microenvironment. Therefore, the present invention provided the inhibitory effects of the non-phosphorylated point mutant of FoxM1 on tumor immune evasion.
Molecule,invasion of cancer cells (in words) (A549 lung cancer cells [1]),"absorbance value at 590 nm (invasion) compared to the control group (A549 lung cancer cells [1]; Matrigel, 7th day, control set to 1) [times]",cancer metastasis to lung and tumorigenesis (tumorigenicity) (A549 cancer cells),cancer metastasis to lung and tumorigenesis (tumorigenicity) (A549 cancer cells; listed as S325E),degree of cancer cell proliferation by H&E and Ki67 staining (A549 cancer cells),"expression of N-cadherin (CDH2), qRT-PCR and Western blot (A549 lung cancer cells [2])",viability change of A549 cells co-cultured with THP-1 and Jurkat cells (A549 cells),invasion of cancer cells (in words) (A549 lung cancer cells [1]; listed as FoxM1 non-phosphorylated point mutant),invasion of cancer cells (in words) (A549 lung cancer cells [1]; listed as non-phosphorylated point mutant protein of FoxM1),cancer metastasis to lung and tumorigenesis (tumorigenicity) (A549 cancer cells; listed as FoxM1 protein containing the non-phosphorylation point mutations),cancer metastasis to lung and tumorigenesis (tumorigenicity) (A549 cancer cells; listed as non-phosphorylated point mutant of FoxM1)
"S25E: FoxM1 phosphorylated point mutant of the S25 residue, expressed by lentivirus in A549 cells (protein, listed as Homo sapiens) MKTSPRRPLILKRRRLPLPVQNAPEETSEEEPKRSPAQQESNQAEASKEVAESNSCKFPAGIKIINHPTMPNTQVVAIPNNANIHSIITALTAKGKESGSSGPNKFILISCGGAPTQPPGLRPQTQTSYDAKRTEVTLETLGPKPAARDVNLPRPPGALCEQKRETCDGEAAGCTINNSLSNIQWLRKMSSDGLGSRSIKQEMEEKENCHLEQRQVKVEEPSRPSASWQNSVSERPPYSYMAMIQFAINSTERKRMTLKDIYTWIEDHFPYFKHIAKPGWKNSIRHNLSLHDMFVRETSANGKVSFWTIHPSANRYLTLDQVFKQQQKRPNPELRRNMTIKTELPLGARRKMKPLLPRVSSYLVPIQFPVNQSLVLQPSVKVPLPLAASLMSSELARHSKRVRIAPKVLLAEEGIAPLSSAGPGKEEKLLFGEGFSPLLPVQTIKEEEIQPGEEMPHLARPIKVESPPLEEWPSPAPSFKEESSHSWEDSSQSPTPRPKKSYSGLRSPTRCVSEMLVIQHRERRERSRSRRKQHLLPPCVDEPELLFSEGPSTSRWAAELPFPADSSDPASQLSYSQEVGGPFKTPIKETLPISSTPSKSVLPRTPESWRLTPPAKVGGLDFSPVQTSQGASDPLPDPLGLMDLSTTPLQSAPPLESPQRLLSSEPLDLISVPFGNSSPSDIDVPKPGSPEPQVSGLAANRSLTEGLVLDTMNDSLSKILLDISFPGLDEDPLGPDNINWSQFIPELQ",highest cancer cell invasion,~40,significantly higher,highest tumorigenicity,high,increased,significantly increased,,,,
"S25A: FoxM1 protein with Ser25 substituted with alanine, non-phosphorylated point mutant, expressed by lentivirus in A549 cells (protein, left off: a dimerising Fc or GST, FoxM1 protein with Ser25 substituted with alanine, non-phosphorylated point mutant, expressed by lentivirus in A549 cells) MKTSPRRPLILKRRRLPLPVQNAPAETSEEEPKRSPAQQESNQAEASKEVAESNSCKFPAGIKIINHPTMPNTQVVAIPNNANIHSIITALTAKGKESGSSGPNKFILISCGGAPTQPPGLRPQTQTSYDAKRTEVTLETLGPKPAARDVNLPRPPGALCEQKRETCDGEAAGCTINNSLSNIQWLRKMSSDGLGSRSIKQEMEEKENCHLEQRQVKVEEPSRPSASWQNSVSERPPYSYMAMIQFAINSTERKRMTLKDIYTWIEDHFPYFKHIAKPGWKNSIRHNLSLHDMFVRETSANGKVSFWTIHPSANRYLTLDQVFKQQQKRPNPELRRNMTIKTELPLGARRKMKPLLPRVSSYLVPIQFPVNQSLVLQPSVKVPLPLAASLMSSELARHSKRVRIAPKVLLAEEGIAPLSSAGPGKEEKLLFGEGFSPLLPVQTIKEEEIQPGEEMPHLARPIKVESPPLEEWPSPAPSFKEESSHSWEDSSQSPTPRPKKSYSGLRSPTRCVSEMLVIQHRERRERSRSRRKQHLLPPCVDEPELLFSEGPSTSRWAAELPFPADSSDPASQLSYSQEVGGPFKTPIKETLPISSTPSKSVLPRTPESWRLTPPAKVGGLDFSPVQTSQGASDPLPDPLGLMDLSTTPLQSAPPLESPQRLLSSEPLDLISVPFGNSSPSDIDVPKPGSPEPQVSGLAANRSLTEGLVLDTMNDSLSKILLDISFPGLDEDPLGPDNINWSQFIPELQ",,,more effective in reducing the metastasis and suppressing the tumorigenic potential,,significantly low,reduced and inhibited,reduced,lower relative absorbance,reduced,relatively low,no tumors were formed
